Values quoted from earlier work, collected in publication PMC8471248.

Target: cell-surface GRP78 (Homo sapiens) (UniProt P11021)
UniProt P11021, sequence (P11021 19-654): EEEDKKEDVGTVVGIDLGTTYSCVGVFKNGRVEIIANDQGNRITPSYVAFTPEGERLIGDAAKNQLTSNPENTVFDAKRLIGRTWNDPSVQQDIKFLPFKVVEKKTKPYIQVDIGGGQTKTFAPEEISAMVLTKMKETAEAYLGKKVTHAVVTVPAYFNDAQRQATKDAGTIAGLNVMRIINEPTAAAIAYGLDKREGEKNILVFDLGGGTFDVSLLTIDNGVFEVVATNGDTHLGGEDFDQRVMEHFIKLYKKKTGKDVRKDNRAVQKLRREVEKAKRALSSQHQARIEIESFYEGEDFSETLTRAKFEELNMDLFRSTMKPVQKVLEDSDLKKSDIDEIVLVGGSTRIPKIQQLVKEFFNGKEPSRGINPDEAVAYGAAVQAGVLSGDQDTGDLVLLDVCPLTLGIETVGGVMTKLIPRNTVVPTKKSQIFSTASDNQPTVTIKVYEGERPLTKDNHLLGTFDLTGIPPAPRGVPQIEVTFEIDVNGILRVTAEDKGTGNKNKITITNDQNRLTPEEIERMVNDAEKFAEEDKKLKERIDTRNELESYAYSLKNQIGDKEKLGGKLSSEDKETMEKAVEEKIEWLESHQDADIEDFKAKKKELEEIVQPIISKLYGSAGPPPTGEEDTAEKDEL

Substance: Activated alpha 2-macroglobulin (from UniProt P01023)
- Kd: 0.1 nM
